Results taken from US20110262436A1, “TREATMENT METHOD” (Genentech, Inc., priority 2008, published 2011).

Assays:
[1] = Repeat-dose safety study in cynomolgus monkeys; format: in vivo; details: GLP toxicology study
Excerpt: Repeat-dose safety study.

[2] = Safety factor calculation (cynomolgus monkey vs proposed human starting dose); design: species or system cynomolgus monkeys; details: Planned Phase Ia starting dose 1 mg/kg
Description: Safety Factor Calculation. Safety factor was calculated for Dose, AUC, Cmax as the ratio at the highest non-severely toxic dose (HNSTD) observed in the single or repeat-dose safety study to the proposed phase I starting dose. The equations are:
Safety factor (SF)Dose=DoseCyno/DoseHuman
SFCmax=(Cmax-Cyno)/(Cmax-Human)
For body surface area calculation: The body weight to surface area index is 12 kg/m^2 for cynomolgus monkeys and 37.5 kg/m^2 for humans.

[3] = biological target: c-met (Mus musculus, UniProt P16056); test: Binding to c-met in mice
c-met, sequence (P16056 25-1379): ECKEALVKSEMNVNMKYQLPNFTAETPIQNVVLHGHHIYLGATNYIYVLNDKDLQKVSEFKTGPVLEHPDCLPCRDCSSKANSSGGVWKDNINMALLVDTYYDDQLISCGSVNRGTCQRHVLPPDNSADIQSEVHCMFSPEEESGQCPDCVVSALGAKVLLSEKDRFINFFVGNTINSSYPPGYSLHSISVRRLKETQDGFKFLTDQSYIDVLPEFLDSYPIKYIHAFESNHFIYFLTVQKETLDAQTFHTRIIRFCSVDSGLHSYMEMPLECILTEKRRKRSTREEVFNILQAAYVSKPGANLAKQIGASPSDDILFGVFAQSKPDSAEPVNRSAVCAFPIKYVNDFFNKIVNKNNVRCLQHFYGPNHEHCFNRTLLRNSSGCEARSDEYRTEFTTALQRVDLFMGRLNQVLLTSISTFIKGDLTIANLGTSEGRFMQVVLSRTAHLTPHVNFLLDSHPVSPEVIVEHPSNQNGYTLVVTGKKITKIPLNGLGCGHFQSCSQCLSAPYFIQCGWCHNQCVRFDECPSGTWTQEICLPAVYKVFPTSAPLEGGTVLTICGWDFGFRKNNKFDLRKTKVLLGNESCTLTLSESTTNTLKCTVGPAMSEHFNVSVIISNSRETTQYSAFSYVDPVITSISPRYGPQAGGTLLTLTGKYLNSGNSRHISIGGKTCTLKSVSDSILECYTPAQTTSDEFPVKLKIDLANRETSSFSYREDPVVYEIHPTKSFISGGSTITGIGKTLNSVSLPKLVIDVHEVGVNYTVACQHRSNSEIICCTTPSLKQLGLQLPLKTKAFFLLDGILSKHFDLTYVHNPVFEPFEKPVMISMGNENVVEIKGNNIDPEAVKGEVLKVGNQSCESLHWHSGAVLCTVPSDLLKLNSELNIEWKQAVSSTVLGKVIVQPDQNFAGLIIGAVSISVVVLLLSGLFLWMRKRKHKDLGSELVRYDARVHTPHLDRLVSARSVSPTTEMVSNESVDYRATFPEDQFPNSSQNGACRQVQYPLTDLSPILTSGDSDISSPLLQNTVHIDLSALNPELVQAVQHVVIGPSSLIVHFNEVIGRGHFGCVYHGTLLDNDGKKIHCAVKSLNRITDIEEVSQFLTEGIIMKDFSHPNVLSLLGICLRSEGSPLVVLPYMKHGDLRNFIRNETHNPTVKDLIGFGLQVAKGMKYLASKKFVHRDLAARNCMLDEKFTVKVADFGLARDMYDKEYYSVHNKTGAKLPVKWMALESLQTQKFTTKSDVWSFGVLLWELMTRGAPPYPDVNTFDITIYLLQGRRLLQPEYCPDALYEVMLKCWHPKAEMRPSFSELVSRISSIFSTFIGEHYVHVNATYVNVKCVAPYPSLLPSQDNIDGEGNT

[4] = tested on: KP4 xenograft; test: PK/PD model of anti-tumor efficacy in KP4 xenograft mice (MTC); details: individual MTC values (n=177) KP4 mice
Description: PK parameter estimates were used as a forcing function to model the pharmacodynamic (PD) endpoint of tumor progression (PD) in KP4 xenograft mice.
Tumor measurements were taken via with calipers, and mice entered the study with tumor volumes of approximately 200 mm^3. Study data up to 21 days from a total of 177 KP4 mice were used in the modeling analysis. Tumor volumes (mm^3) were converted to mass (mg) assuming 1 mm^3=1 mg tumor tissue. A mixed effects PK/pharmacodynamic (PD) model describing anti-tumor efficacy in KP4 xenograft mice was fit to the tumor data using NONMEM software (Double Precision, version V, level 1.0 UCSF, San Francisco Calif.).
MTC is calculated from the differential equation describing tumor mass where (dTM(t)/dt=0)

[5] = PK study, single IV bolus dose in Sprague-Dawley rats; format: in vivo
Description: (§1) PK studies. PK studies were conducted in mice, rats, and cynomolgus monkeys.
(§2) Pharmacokinetic Assays for MetMAb in Mouse Serum and Rat Serum. […] A direct ELISA assay was developed for quantification of MetMAb in mouse serum and Sprague-Dawley rat serum. Plates were coated with human c-Met-Fc fusion protein to which samples, standards, and dosing solutions were added. Goat anti-human F(Ab′)2 horseradish peroxidase (HRP) was used for detection. Tetrapethyl benzidine (TMB) peroxidase substrate was added for signal development. The substrate reaction was stopped with phosphoric acid. The plates were read at an absorbance of 450 nm. […] The lower limit of quantitation in the assay was 0.47 ng/mL and the upper limit of quantification was 30 ng/mL. The minimum dilution for nude mouse serum samples was 1/10, resulting in a minimum quantifiable concentration of 4.7 ng/mL, with an indefinite upper limit. The minimum dilution for rat serum samples was 1/50, resulting in a minimum quantifiable concentration of 23.5 ng/mL, with an indefinite upper limit.
(§3) Mouse, Rat, and Cynomolgus Monkey PK data analysis. […] PK parameters were estimated using WinNonlin Enterprise Version 5.0.1 (Pharsight Corp., Mountain View, Calif.). The nominal dose administered for each group was used for modeling. Since a single concentration-time profile for mice was determined for each group, one estimate of each PK parameter was obtained and is reported, along with the standard error (SE) of the fit of each PK parameter. For rats and monkeys, PK parameters are reported as mean (+/−SD).
(§4) For IV administrations, a two-compartment elimination model with IV bolus input and first-order elimination was used to describe the observed data (WinNonlin Model 7). Concentrations were weighted using iterative reweighting (1/ŷ^2) and the Nelder-Mead minimization algorithm. The following equation was used to calculate concentration over time in Model 7: […]

[6] = PK studies in mice, rats, and cynomolgus monkeys (stated across species); format: in vivo; details: cynomolgus monkeys
Description: as §1, §3, §4

[7] = PK study, single IV bolus dose in nude mice; format: in vivo
Description: as §1
The expected serum concentration at the time of serum sample collection was estimated based on PK parameters determined in the PK study in non-tumor bearing mice (described above). […] These PK parameters were used to estimate serum concentration by WinNonlin Enterprise Version 5.0.1 (Pharsight Corp., Mountain View, Calif.) for doses tested in IV infusion study.
as §2, §3, §4

[8] = tested on: KP4 human pancreatic ductal cell carcinoma cells; test: Dose fractionation study in KP4 xenograft mice; format: in vivo; details: total 2.5, 7.5 or 30 mg/kg as Q1W, Q2W or Q3W
Description: For example, a 30 mg/kg total dose was given as 10 mg/kg Q1W, 15 mg/kg Q2W, or 30 mg/kg Q3W.
(§5) In all cases, tumors were measured with calipers throughout the study.

[9] = tested on: KP4 human pancreatic ductal cell carcinoma cells; test: Dose response study in KP4 xenograft mice; format: in vivo; details: from Day 21 effect vs. dose profile
Description: In a dose response study, female nude (nu/nu) mice (age 6-8 weeks) were inoculated subcutaneously (SC) with 5×10^6 KP4 human pancreatic ductal cell carcinoma cells.
as §5

[10] = Phase I dose-escalation study: pharmacokinetics; format: in vivo, humans; details: patients
Description: Study design. There are two stages to this study, a dose-escalation stage and an expansion stage.
Study treatment. […] Dose levels tested in Phase I were: 1 mg/kg, 4 mg/kg, 10 mg/kg, 20 mg/kg, and 30 mg/kg.
MetMAb was administered as an IV infusion. […] The MetMAb infusion was slowed or interrupted for patients experiencing infusion-associated symptoms.
Pharmacokinetics of the study drug were determined by serially monitoring of serum samples for MetMAb throughout the study.

[11] = Estimation of human PK by allometric scaling; design: species or system humans
Excerpt: Estimation of Human PK Profile.
One approach was allometric scaling, which is based on the assumption that many physical and physiological parameters vary according to a mathematical function of body weight (BW)
Y=a×BWb • where Y is the variable of interest, a is the y-axis intercept, and b is slope.
The log plot of CL value versus body weight, repression, and R-squared values were generated by KaleidaGraph (version 3.6).

[12] = Athymic nude mouse, single IV dose
[13] = non-tumor-bearing mice, two-compartmental model

MetMAb: recombinant, humanized, monovalent (one-armed) monoclonal antibody directed against human c-met
Highest non-severely toxic dose [1]: 100 mg/kg | Multiple Dose Safety Factor: Body Surface Area [2]: 105 | Multiple Dose Safety Factor: Total Dose [2]: 325 | Single Dose Safety Factor: Body Surface Area [2]: 32 | Single Dose Safety Factor: Single Dose [2]: 100 | Binding to c-met [3]: does not bind to c-met | MTC, 90% of values [4]: below 110 μg/mL | Median MTC (Minimum Tumorostatic Concentration) [4]: approximately 15 μg/mL | Terminal Half-Life ([5]; Sprague Dawley rat): 5.18 days | V1 ([5]; Sprague Dawley rat): 44.6 mL/kg | Vss ([5]; Sprague Dawley rat): 107 mL/kg | CL ([5]; Sprague Dawley rat (n = 6)): 18.8 mL/day/kg | Beta half-life [6]: 4 to 5 days | Terminal Half-Life [7, 12]: 4.70 days | V1 [7, 12]: 48.8 mL/kg | Vss [7, 12]: 140 mL/kg | Serum disposition ([7]; non-tumor-bearing mice): biphasic and exhibited dose-proportionality | CLd (inter-compartmental clearance) [7, 13]: 190 mL/day/kg | V2 (apparent peripheral volume of distribution) [7, 13]: 90.7 mL/kg | Efficacy at the same dose level with different dose regimens [8]: similar | Median efficacious dose (representative) [9]: 7.5 mg/kg | Minimal efficacious dose (representative) [9]: 2.5 mg/kg | Inter-individual variability of serum concentrations at each dose level [10]: less than 30% | Clearance compared to the other dose groups ([10]; 1 mg/kg dose): slightly faster clearance | Half-life ([10]; IV Q3W): approximately 10 days | PK linearity ([10]; dose range 4 to 30 mg/kg): linear pharmacokinetics | Predicted clearance in humans [11]: 10 mL/day/kg
